# Experimental data taken from patent publication US20250163127A1 (published 2025).
# Where a chain is given by its changes, count along the chain named.
# T1: human CD86 (human)
# T1 chain: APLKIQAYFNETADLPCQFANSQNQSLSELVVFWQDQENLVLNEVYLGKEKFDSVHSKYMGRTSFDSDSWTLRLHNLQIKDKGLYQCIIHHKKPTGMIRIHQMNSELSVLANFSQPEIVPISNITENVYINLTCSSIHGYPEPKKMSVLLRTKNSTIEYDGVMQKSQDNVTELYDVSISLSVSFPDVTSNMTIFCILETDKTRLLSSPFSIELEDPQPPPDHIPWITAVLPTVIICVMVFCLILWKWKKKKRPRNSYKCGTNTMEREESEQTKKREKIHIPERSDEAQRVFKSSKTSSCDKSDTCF
# B1: PD-L1 303-PD-L1 303-CD58 3650-CD58 3650 (other)
# chain: FTVTVPKDLYVVEYGSNMTIECKFPVEKQLDLAALIVYWEMEGKDIIQFVHGEEDQKAQHSSYRQRARLLKDQLSLGNAALQITDVKLQDAGVYRCMISYGGGADYKRITVKVNAGGGGSGGGGSGGGGSFTVTVPKDLYVVEYGSNMTIECKFPVEKQLDLAALIVYWEMEGKDIIQFVHGEEDQKAQHSSYRQRARLLKDQLSLGNAALQITDVKLQDAGVYRCMISYGGGADYKRITVKVNAGGGGSGGGGSGGGGSSQQIYGVVYGNVTFHVPSNVPLKEVLWKKQKDKVAELENSEFRAFSSFKNRVYLDTVSGSLTIYNLTSSDEDEYEMESPNITDTMKFFLYVLESGSGGSGGGGSGGGGSSQQIYGVVYGNVTFHVPSNVPLKEVLWKKQKDKVAELENSEFRAFSSFKNRVYLDTVSGSLTIYNLTSSDEDEYEMESPNITDTMKFFLYVLESGSGGGGSDYKDDDDKHHHHHH
# B2: CD58 3650-PD-L1 303-Fc (Fc fusion)
# chain: SQQIYGVVYGNVTFHVPSNVPLKEVLWKKQKDKVAELENSEFRAFSSFKNRVYLDTVSGSLTIYNLTSSDEDEYEMESPNITDTMKFFLYVLESGGGGSGGGGSGGGGSFTVTVPKDLYVVEYGSNMTIECKFPVEKQLDLAALIVYWEMEGKDIIQFVHGEEDQKAQHSSYRQRARLLKDQLSLGNAALQITDVKLQDAGVYRCMISYGGGADYKRITVKVNAGSGGGGSEPKSSDKTHTCPPCPAPEAEGAPSVFLFPPKPKDTLMISRTPEVTCVVVDVSHEDPEVKFNWYVDGVEVHNAKTKPREEQYNSTYRVVSVLTVLHQDWLNGKEYKCKVSNKALPAPIEKTISKAKGQPREPQVYTLPPSRDELTKNQVSLTCLVKGFYPSDIAVEWESNGQPENNYKTTPPVLDSDGSFFLYSKLTVDKSRWQQGNVFSCSVMHEALHNHYTQKSLSLSPG
# B3: CD58 3650-CD58 3650-PD-L1 303-PD-L1 303 (other)
# chain: SQQIYGVVYGNVTFHVPSNVPLKEVLWKKQKDKVAELENSEFRAFSSFKNRVYLDTVSGSLTIYNLTSSDEDEYEMESPNITDTMKFFLYVLESGGGGSGGGGSGGGGSSQQIYGVVYGNVTFHVPSNVPLKEVLWKKQKDKVAELENSEFRAFSSFKNRVYLDTVSGSLTIYNLTSSDEDEYEMESPNITDTMKFFLYVLESGGGGSGGGGSGGGGSFTVTVPKDLYVVEYGSNMTIECKFPVEKQLDLAALIVYWEMEGKDIIQFVHGEEDQKAQHSSYRQRARLLKDQLSLGNAALQITDVKLQDAGVYRCMISYGGGADYKRITVKVNAGSGGSGGGGSGGGGSFTVTVPKDLYVVEYGSNMTIECKFPVEKQLDLAALIVYWEMEGKDIIQFVHGEEDQKAQHSSYRQRARLLKDQLSLGNAALQITDVKLQDAGVYRCMISYGGGADYKRITVKVNAGSGGGGSDYKDDDDKHHHHHH
# B4: PD-L1 303-CD58 3650-Fc (Fc fusion)
# chain: FTVTVPKDLYVVEYGSNMTIECKFPVEKQLDLAALIVYWEMEGKDIIQFVHGEEDQKAQHSSYRQRARLLKDQLSLGNAALQITDVKLQDAGVYRCMISYGGGADYKRITVKVNAGGGGSGGGGSGGGGSSQQIYGVVYGNVTFHVPSNVPLKEVLWKKQKDKVAELENSEFRAFSSFKNRVYLDTVSGSLTIYNLTSSDEDEYEMESPNITDTMKFFLYVLESGSGGGGSEPKSSDKTHTCPPCPAPEAEGAPSVFLFPPKPKDTLMISRTPEVTCVVVDVSHEDPEVKFNWYVDGVEVHNAKTKPREEQYNSTYRVVSVLTVLHQDWLNGKEYKCKVSNKALPAPIEKTISKAKGQPREPQVYTLPPSRDELTKNQVSLTCLVKGFYPSDIAVEWESNGQPENNYKTTPPVLDSDGSFFLYSKLTVDKSRWQQGNVFSCSVMHEALHNHYTQKSLSLSPG
# B5: PD-L1 303-CTLA-4 3037-Fc (SEQ ID NO 3668) (Fc fusion)
# chain: FTVTVPKDLYVVEYGSNMTIECKFPVEKQLDLAALIVYWEMEGKDIIQFVHGEEDQKAQHSSYRQRARLLKDQLSLGNAALQITDVKLQDAGVYRCMISYGGGADYKRITVKVNAGSGGSGGGGSGGGGSKAMHVAQPAVVLASSRGIASFVCEYASPWKATEVRVTVLRQADSQVTEVCAATYMMGSELTFPDDSICTGTSSGNQVNLTIRGLRAMDTGLYICKVEQMYPPPYLLGIGNGTQIYVIDPEPCPDSDGGGGSGSGGGGSEPKSSDKTHTCPPCPAPEAEGAPSVFLFPPKPKDTLMISRTPEVTCVVVDVSHEDPEVKFNWYVDGVEVHNAKTKPREEQYNSTYRVVSVLTVLHQDWLNGKEYKCKVSNKALPAPIEKTISKAKGQPREPQVYTLPPSRDELTKNQVSLTCLVKGFYPSDIAVEWESNGQPENNYKTTPPVLDSDGSFFLYSKLTVDKSRWQQGNVFSCSVMHEALHNHYTQKSLSLSPG
# B6: PD-L1 303-CTLA4 3060-Fc (Fc fusion)
# chain: B5 chain with L142F, R146H, M186T, S188N, P193L, R212Q
# B7: CTLA-4 3037-Fc (Fc fusion)
# chain: KAMHVAQPAVVLASSRGIASFVCEYASPWKATEVRVTVLRQADSQVTEVCAATYMMGSELTFPDDSICTGTSSGNQVNLTIRGLRAMDTGLYICKVEQMYPPPYLLGIGNGTQIYVIDPEPCPDSDGSGGGGSEPKSSDKTHTCPPCPAPEAEGAPSVFLFPPKPKDTLMISRTPEVTCVVVDVSHEDPEVKFNWYVDGVEVHNAKTKPREEQYNSTYRVVSVLTVLHQDWLNGKEYKCKVSNKALPAPIEKTISKAKGQPREPQVYTLPPSRDELTKNQVSLTCLVKGFYPSDIAVEWESNGQPENNYKTTPPVLDSDGSFFLYSKLTVDKSRWQQGNVFSCSVMHEALHNHYTQKSLSLSPG
# B8: CTLA-4 3037-Fc-PD-L1 303 (SEQ ID NO 3670) (Fc fusion)
# chain: KAMHVAQPAVVLASSRGIASFVCEYASPWKATEVRVTVLRQADSQVTEVCAATYMMGSELTFPDDSICTGTSSGNQVNLTIRGLRAMDTGLYICKVEQMYPPPYLLGIGNGTQIYVIDPEPCPDSDGSGGGGSEPKSSDKTHTCPPCPAPEAEGAPSVFLFPPKPKDTLMISRTPEVTCVVVDVSHEDPEVKFNWYVDGVEVHNAKTKPREEQYNSTYRVVSVLTVLHQDWLNGKEYKCKVSNKALPAPIEKTISKAKGQPREPQVYTLPPSRDELTKNQVSLTCLVKGFYPSDIAVEWESNGQPENNYKTTPPVLDSDGSFFLYSKLTVDKSRWQQGNVFSCSVMHEALHNHYTQKSLSLSPGGGGGSGGGGSGGGGSFTVTVPKDLYVVEYGSNMTIECKFPVEKQLDLAALIVYWEMEGKDIIQFVHGEEDQKAQHSSYRQRARLLKDQLSLGNAALQITDVKLQDAGVYRCMISYGGGADYKRITVKVNA
# B9: CTLA-4 3037-PD-L1 303-Fc (SEQ ID NO 3666) (Fc fusion)
# chain: KAMHVAQPAVVLASSRGIASFVCEYASPWKATEVRVTVLRQADSQVTEVCAATYMMGSELTFPDDSICTGTSSGNQVNLTIRGLRAMDTGLYICKVEQMYPPPYLLGIGNGTQIYVIDPEPCPDSDGSGGSGGGGSGGGGSFTVTVPKDLYVVEYGSNMTIECKFPVEKQLDLAALIVYWEMEGKDIIQFVHGEEDQKAQHSSYRQRARLLKDQLSLGNAALQITDVKLQDAGVYRCMISYGGGADYKRITVKVNAGGGGSGSGGGGSEPKSSDKTHTCPPCPAPEAEGAPSVFLFPPKPKDTLMISRTPEVTCVVVDVSHEDPEVKFNWYVDGVEVHNAKTKPREEQYNSTYRVVSVLTVLHQDWLNGKEYKCKVSNKALPAPIEKTISKAKGQPREPQVYTLPPSRDELTKNQVSLTCLVKGFYPSDIAVEWESNGQPENNYKTTPPVLDSDGSFFLYSKLTVDKSRWQQGNVFSCSVMHEALHNHYTQKSLSLSPG
# B10: CTLA-4 3060-PD-L1 303-Fc (Fc fusion)
# chain: B9 chain with L12F, R16H, M56T, S58N, P63L, R82Q
# B11: CTLA4 3037-Fc-PD-L1 303 (SEQ ID NO 3672) (Fc fusion)
# chain: KAMHVAQPAVVLASSRGIASFVCEYASPWKATEVRVTVLRQADSQVTEVCAATYMMGSELTFPDDSICTGTSSGNQVNLTIRGLRAMDTGLYICKVEQMYPPPYLLGIGNGTQIYVIDPEPCPDSDGSGGGGSEPKSSDKTHTCPPCPAPEAEGAPSVFLFPPKPKDTLMISRTPEVTCVVVDVSHEDPEVKFNWYVDGVEVHNAKTKPREEQYNSTYRVVSVLTVLHQDWLNGKEYKCKVSNKALPAPIEKTISKAKGQPREPQVYTLPPSRDELTKNQVSLTCLVKGFYPSDIAVEWESNGQPENNYKTTPPVLDSDGSFFLYSKLTVDKSRWQQGNVFSCSVMHEALHNHYTQKSLSLSPGGGGGSGGGGSGGGGSAFTVTVPKDLYVVEYGSNMTIECKFPVEKQLDLAALIVYWEMEGKDIIQFVHGEEDQKAQHSSYRQRARLLKDQLSLGNAALQITDVKLQDAGVYRCMISYGGGADYKRITVKVNA
# Molecular target: human PD-1 (human, UniProt Q15116)
# Assay: flow cytometry, Jurkat/IL-2/PD-1 cells
row,Binder,EC50 [nM]
1,B1,2
2,B2,4.6
3,B3,19.5
4,B4,1.2

# Molecular target: T1, human CD86
# Assay: cell-based or functional assay
row,Binder,"100 nM IFN-gamma (pg/mL), SEB assay [pg/mL]"
1,B5,6100
2,B6,4470
3,B7,807
4,B8,1570
5,B9,2050
6,B10,3790
7,B11,2070

# Molecular target: PD-1 (human, UniProt Q15116)
# Assay: cell-based or functional assay
row,Binder,"100 nM IFN-gamma (pg/mL), SEB assay [pg/mL]"
1,B5,6100
2,B6,4470
3,B8,1570
4,B9,2050
5,B10,3790
6,B11,2070

# Molecular target: CD2 (Homo sapiens (Human), UniProt P06729)
# Assay: flow cytometry, CHO-CD2 cells
row,Binder,EC50 [nM]
1,B1,13.7
2,B2,2
3,B3,24.4
4,B4,0.661
